Source: patent publication US7427498B2, “Composition, methods and reagents for the synthesis of a soluble form of human PHEX” (Universite De Montreal, priority 1999, dated 2008)
“Also recorded” adds a separate entry of the source.

T1: PTHrP107-139, P12272
T1 chain: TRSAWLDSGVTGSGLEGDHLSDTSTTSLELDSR

B1: secPHEX, soluble secreted form of recombinant human PHEX (construct 3, pCDNA3/RSV/PHEX-MutE) (protein)
chain: MEAETGSSVETGKKANRGTRIALVVFVLTVIAQQTTSQGLLSLQAKQEYCLKPECIEAAAAILSKVNLSVDPCDNFFRFACDGWISNNPIPEDMPSYGVYPWLRHNVDLKLKELLEKSISRRRDTEAIQKAKILYSSCMNEKAIEKADAKPLLHILRHSPFRWPVLESNIGPEGVWSERKFSLLQTLATFRGQYSNSVFIRLYVSPDDKASNEHILKLDQATLSLAVREDYLDNSTEAKSYRDALYKFMVDTAVLLGANSSRAEHDMKSVLRLEIKIAEIMIPHENRTSEAMYNKMNISELSAMIPQFDWLGYIKKVIDTRLYPHLKDISPSENVVVRVPQYFKDLFRILGSERKKTIANYLVWRMVYSRIPNLSRRFQYRWLEFSRVIQGTTTLLPQWDKCVNFIESALPYVVGKMFVDVYFQEDKKEMMEELVEGVRWAFIDMLEKENEWMDAGTKRKAKEKARAVLAKVGYPEFIMNDTHVNEDLKAIKFSEADYFGNVLQTRKYLAQSDFFWLRKAVPKTEWFTNPTTVNAFYSASTNQIRFPAGELQKPFFWGTEYPRSLSYGAIGVIVGHEFTHGFDNNGRKYDKNGNLDPWWSTESEEKFKEKTKCMINQYSNYYWKKAGLNVKGKRTLGENIADNGGLREAFRAYRKWINDRRQGLEEPLLPGITFTNNQLFFLSYAHVRCNSYRPEAAREQVQIGAHSPPQFRVNGAISNSEEFQKAFNCPPNSTMNRGMDSCRLW

Columns and labels:
secPHEX = assay: Inhibition of secPHEX enzymatic activity (cleavage of PTHrP107-139, RP-HPLC); assay type: biochemical, human; conditions: 0.001 M inhibitor added to the reaction mixture
Method: (§1) FIG. 6: Enzymatic assay for secPHEX. Purified secPHEX (2 μg) was incubated in the presence of 10 μg PTHrP107-139 and the reaction mixture analyzed by RP-HPLC.
(§2) An aliquot of purified PHEX containing 2 μg of protein was incubated for 15 min at 37° C. in a volume of 200 μl of 50 mM MES (2-(N-Morpholinoethanesulfonic acid, pH 6.5, containing 150 mM NaCl and 10 μg of PTHrP107-139 as a substrate. After the incubation period, the hydrolysis was stopped by the addition of trifluoroacetic acid to a final concentration of 0.1%. Identification of peptide products was performed by reverse phase high performance liquid chromatography (RP-HPLC) on a C18 μBondapak analytical column (Waters) with a UV detector set at 214 nm. Peptides were resolved with a linear gradient of 5% B to 85% B in 45 min at the flow rate of 0.4 ml/min [mobile phase A=0.1% trifluoroacetic acid; mobile phase B=80% acetonitrile (CH3CN), 0.1% trifluoroacetic acid].

PTHrP107-139, P12272 = target: T1, PTHrP107-139, P12272
PTHrP107-139 = assay: Assay for the activity of PHEX: digestion of PTHrP107-139 by purified secPHEX, RP-HPLC; assay type: biochemical
Method: as §1, §2

Molecule	inhibition of secPHEX enzymatic activity (degradation of PTHrP107-139) (secPHEX)	PTHrP107-139 peak on the chromatogram (RP-HPLC) after 15 min of incubation (PTHrP107-139, P12272)	PTHrP107-139 peak on the chromatogram, % of its original surface (PTHrP107-139; 2 μg secPHEX, 10 μg PTHrP107-139, 15 min at 37° C., 50 mM MES pH 6.5, 150 mM NaCl)	enzymatic activity in other buffers (PTHrP107-139; Acetate, HEPES and Tris buffers covering a pH range from 4.0 to 8.5)	enzymatic activity on PTHrP107-139 (qualitative) (PTHrP107-139; purified secPHEX, conditions of Methods)
O=C(O)CN(CCN(CC(=O)O)CC(=O)O)CC(=O)O [EDTA]	totally inhibited; also recorded: fully inhibited				
c1cnc2c(c1)ccc1cccnc12 [O-phenantrolin]	fully inhibited				
B1		PTHrP107-139 peak on the chromatogram was decreased to 15% of its original surface after only 15 min of incubation	15%	Activity was also observed	active; also recorded: can degrade this peptide
